Legend:
[1] = target: HLA-A*02:01; test: IEDB peptide-MHC binding, purified MHC/competitive/radioactivity; ≥ and ≤ were set here for values at or beyond the usual limits of such assays
[2] = target: HLA-A*11:01; test: IEDB peptide-MHC binding, purified MHC/direct/fluorescence; filed as Kd, often an IC50 or EC50 that approximates it; ≥ and ≤ were set here for values at or beyond the usual limits of such assays
[3] = target: HLA-B*58:01; test: as above
[4] = target: HLA-B*46:01; test: as above; settings: source organism: Mycobacterium tuberculosis
[5] = target: HLA-A*69:01; test: as above
[6] = target: HLA-B*39:01; test: as above; settings: source organism: Mycobacterium tuberculosis str. Haarlem
[7] = target: HLA-B*40:01; test: as above; settings: source organism: Mycobacterium tuberculosis
[8] = target: HLA-A*03:01; test: as above
[9] = target: HLA-A*31:01; test: as above
[10] = target: HLA-B*57:01; test: as above
[11] = target: HLA-B*48:01; test: as above; settings: source organism: Mycobacterium tuberculosis
[12] = target: HLA-B*15:01; test: as above
[13] = target: HLA-A*01:01; test: as above
[14] = target: HLA-B*27:05; test: as above
[15] = target: HLA-B*51:01; test: as above; settings: source organism: Mycobacterium tuberculosis
[16] = target: HLA-B*15:42; test: IEDB peptide-MHC binding, purified MHC/competitive/fluorescence; filed as Kd, often an IC50 or EC50 that approximates it; ≥ and ≤ were set here for values at or beyond the usual limits of such assays
[17] = target: HLA-B*08:01; test: as above
[18] = target: HLA-A*02:01; test: as above; settings: source organism: Mycobacterium tuberculosis variant bovis BCG str. Pasteur 1173P2
[19] = target: HLA-B*15:17; test: as above
[20] = target: HLA-B*83:01; test: as above
[21] = target: HLA-A*30:01; test: as above; settings: source organism: Mycobacterium tuberculosis variant bovis BCG str. Pasteur 1173P2
[22] = target: HLA-A*02:06; test: as above
[23] = target: HLA-B*45:06; test: as above
[24] = target: HLA-A*11:01; test: as above; settings: source organism: Yersinia pestis Nepal516
[25] = target: HLA-C*06:02; test: IEDB peptide-MHC binding, purified MHC/direct/fluorescence; filed as Kd, often an IC50 or EC50 that approximates it; ≥ and ≤ were set here for values at or beyond the usual limits of such assays
[26] = target: HLA-A*02:01; test: as above
[27] = target: HLA-B*07:02; test: as above
[28] = target: HLA-C*03:03; test: as above; settings: source organism: Homo sapiens
[29] = target: HLA-A*32:07; test: IEDB peptide-MHC binding, purified MHC/competitive/fluorescence; filed as Kd, often an IC50 or EC50 that approximates it; ≥ and ≤ were set here for values at or beyond the usual limits of such assays
[30] = target: HLA-C*14:02; test: IEDB peptide-MHC binding, purified MHC/direct/fluorescence; filed as Kd, often an IC50 or EC50 that approximates it; ≥ and ≤ were set here for values at or beyond the usual limits of such assays; settings: source organism: Yellow fever virus
[31] = target: HLA-C*15:02; test: as above
[32] = target: HLA-B*18:01; test: as above; settings: source organism: Influenza A virus (A/quail/Hong Kong/FY298/00(H9N2))
[33] = target: HLA-A*26:01; test: as above; settings: source organism: Influenza A virus(A/swine/Henan/5/2004(H9N2))
[34] = target: HLA-C*07:02; test: as above; settings: source organism: Influenza A virus (A/Fort Monmouth/1/1947-mouse adapted(H1N1))
[35] = target: HLA-A*24:02; test: as above; settings: source organism: Influenza A virus (A/quail/Hong Kong/FY298/00(H9N2))
[36] = target: HLA-B*08:02; test: as above; settings: source organism: Influenza A virus(A/swine/Henan/5/2004(H9N2))
[37] = target: HLA-A*24:03; test: as above; settings: source organism: Influenza A virus (A/quail/Hong Kong/FY298/00(H9N2))
[38] = target: HLA-A*68:02; test: IEDB peptide-MHC binding, purified MHC/competitive/fluorescence; filed as Kd, often an IC50 or EC50 that approximates it; ≥ and ≤ were set here for values at or beyond the usual limits of such assays; settings: source organism: Influenza A virus (A/Fort Monmouth/1/1947-mouse adapted(H1N1))
[39] = target: HLA-C*14:02; test: as above; settings: source organism: Bacillus cereus G9241
[40] = target: HLA-A*24:03; test: as above; settings: source organism: Bacillus cereus G9241
[41] = source organism: Mycobacterium tuberculosis
[42] = source organism: Mycobacterium tuberculosis variant bovis BCG str. Pasteur 1173P2
[43] = source organism: Yellow fever virus
[44] = source organism: Influenza A virus (A/quail/Hong Kong/FY298/00(H9N2))
[45] = source organism: Influenza A virus (A/Fort Monmouth/1/1947-mouse adapted(H1N1))
[46] = source organism: Bacillus cereus G9241

With ALSRKVAEL the IC50 ([1]; source organism: Homo sapiens) was 100 nM.
Work on CISSCNPNP yielded an IC50 ([1]; source organism: Homo sapiens) of at least 20000 nM.
IMDKNIILKA showed an IC50 ([1]; source organism: Influenza A virus (A/Puerto Rico/8/1934(H1N1))) of 43000 nM.
For RPRLHSISF, the Kd [2, 41] was at least 20 µM, the Kd [3, 41] was at least 20 µM and the Kd [4] was at least 20 µM. It also gave a Kd [5, 41] of at least 20000 nM, a Kd [6] of at least 20 µM and a Kd [7] of at least 20 µM. For the same sequence, the Kd [8, 41] was at least 20 µM, the Kd [9, 41] was at least 20 µM and the Kd [10, 41] was at least 20 µM. It also gave a Kd [11] of at least 20 µM, a Kd [12, 41] of 79 nM and a Kd [13, 41] of 1310 nM. The Kd [14, 41] was at least 20 µM, the Kd [15] was at least 20 µM and the Kd [16, 42] was at least 5 µM. It also gave a Kd [17, 42] of 15.9 nM, a Kd [18] of at least 20 µM and a Kd [19, 42] of at least 20000 nM. It also gave a Kd [20, 42] of 0.045 µM, a Kd [21] of at least 20 µM and a Kd [22, 42] of at least 20000 nM. For the same sequence, the Kd [23, 42] was at least 5 µM.
For RTMEVFTMY, the Kd [24] was 3.3 nM.
Sequence RTYSGPMNKV has an IC50 ([1]; source organism: Homo sapiens) of 793 nM.
RVMAPRALL showed a Kd ([25]; source organism: Homo sapiens) of 49 nM, a Kd ([2]; source organism: Homo sapiens) of 1 µM and a Kd ([3]; source organism: Homo sapiens) of 0.304 µM. It also gave a Kd ([26]; source organism: Homo sapiens) of 15.6 µM, a Kd ([5]; source organism: Homo sapiens) of 130 nM and a Kd ([8]; source organism: Homo sapiens) of 0.775 µM. For the same sequence, the Kd ([9]; source organism: Homo sapiens) was 0.143 µM, the Kd ([27]; source organism: Homo sapiens) was 232 nM and the Kd ([12]; source organism: Homo sapiens) was 102 nM. For the same sequence, the Kd ([14]; source organism: Homo sapiens) was 2.17 µM, the Kd [28] was 113 nM and the Kd ([29]; source organism: Homo sapiens) was 21.9 nM. It also gave a Kd ([16]; source organism: Homo sapiens) of at least 20 µM, a Kd ([20]; source organism: Homo sapiens) of 9.34 µM and a Kd ([23]; source organism: Homo sapiens) of at least 5 µM.
Sequence RWFVRNPFF has a Kd [30] of 278 nM, a Kd [25, 43] of at least 20000 nM and a Kd [31, 43] of at least 20 µM. For the same sequence, the Kd [16, 43] was at least 5 µM, the Kd [20, 43] was at least 5 µM and the Kd [23, 43] was at least 5 µM.
In the case of SYLIRALTL, the Kd [32] is reported as at least 20 µM, the Kd [2, 44] is reported as at least 20 µM and the Kd [33] is reported as at least 20 µM. It also gave a Kd [3, 44] of at least 20 µM, a Kd [26, 44] of at least 20 µM and a Kd [34] of 55 nM. For the same sequence, the Kd [35] was 3.9 nM, the Kd [36] was at least 20 µM and the Kd [8, 44] was at least 20 µM. The Kd [9, 44] was at least 20 µM, the Kd [37] was at most 1 nM and the Kd [10, 44] was at least 20 µM. It also gave a Kd [27, 44] of at least 20000 nM, a Kd [12, 44] of at least 20000 nM and a Kd [13, 44] of at least 20000 nM. It also gave a Kd [14, 44] of at least 20 µM, a Kd [17, 45] of 1720 nM and a Kd [38] of 1190 nM. The Kd [19, 45] was 196 nM and the Kd [22, 45] was 1410 nM.
YYKKTFSAL gave a Kd [25, 46] of 1660 nM, a Kd [31, 46] of at least 20 µM and a Kd [39] of 0.4 nM. The Kd [29, 46] was 29 nM, the Kd [16, 46] was at least 5 µM and the Kd [20, 46] was at least 5 µM. It also gave a Kd [23, 46] of at least 5 µM and a Kd [40] of at most 0.1 nM.
